Data published in the supplement of paper PMC10065799, “High-throughput profiling of sequence recognition by tyrosine kinases and SH2 domains using bacterial peptide display” (eLife, 2023).

What was measured:
AncSZ = assay: phosphorylation enrichment, bacterial display (enrichment ratio); higher = better substrate or ligand; peptides without Tyr show the background
EPHB1 = EPHB1 (UniProt P54762); assay: as above
EPHB2 = EPHB2 (UniProt P29323); assay: as above
FGFR1 = FGFR1 (UniProt P11362); assay: as above
FGFR3 = FGFR3 (UniProt P22607); assay: as above
Fer (mouse) = assay: as above
Fes = Fes (UniProt P07332); assay: as above
Fyn = Fyn (UniProt P06241); assay: as above
Hck = Hck (UniProt P08631); assay: as above
Jak2 = Jak2 (UniProt O60674); assay: as above
MERTK = MERTK (UniProt Q12866); assay: as above
c-Abl (mouse) = assay: as above
c-Src = assay: as above
Grb2 SH2 = Grb2 SH2 (UniProt P62993); assay: SH2 binding enrichment of the phosphorylated peptide, bacterial display (enrichment ratio); higher = better substrate or ligand; peptides without Tyr show the background
SHP2-C SH2 = assay: as above
c-Src SH2 = assay: as above
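For SH2 binding enrichment of the phosphorylated peptide, bacterial display in this document: peptide library displayed on the E. coli surface as eCPX fusions, selected cells deep-sequenced, score is each peptide's frequency after selection divided by its frequency in the input.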
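For phosphorylation enrichment, bacterial display in this document: 11-residue human phosphosite peptides and single-mutation variants displayed on the E. coli surface, counted by deep sequencing, each peptide's frequency after selection divided by its frequency in the unselected input library; frequency after pTyr selection over input frequency; kinase dosed for 20-30% of maximal phosphorylation in three min.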

FGFR3, sequence (P22607 whole entry, looked up): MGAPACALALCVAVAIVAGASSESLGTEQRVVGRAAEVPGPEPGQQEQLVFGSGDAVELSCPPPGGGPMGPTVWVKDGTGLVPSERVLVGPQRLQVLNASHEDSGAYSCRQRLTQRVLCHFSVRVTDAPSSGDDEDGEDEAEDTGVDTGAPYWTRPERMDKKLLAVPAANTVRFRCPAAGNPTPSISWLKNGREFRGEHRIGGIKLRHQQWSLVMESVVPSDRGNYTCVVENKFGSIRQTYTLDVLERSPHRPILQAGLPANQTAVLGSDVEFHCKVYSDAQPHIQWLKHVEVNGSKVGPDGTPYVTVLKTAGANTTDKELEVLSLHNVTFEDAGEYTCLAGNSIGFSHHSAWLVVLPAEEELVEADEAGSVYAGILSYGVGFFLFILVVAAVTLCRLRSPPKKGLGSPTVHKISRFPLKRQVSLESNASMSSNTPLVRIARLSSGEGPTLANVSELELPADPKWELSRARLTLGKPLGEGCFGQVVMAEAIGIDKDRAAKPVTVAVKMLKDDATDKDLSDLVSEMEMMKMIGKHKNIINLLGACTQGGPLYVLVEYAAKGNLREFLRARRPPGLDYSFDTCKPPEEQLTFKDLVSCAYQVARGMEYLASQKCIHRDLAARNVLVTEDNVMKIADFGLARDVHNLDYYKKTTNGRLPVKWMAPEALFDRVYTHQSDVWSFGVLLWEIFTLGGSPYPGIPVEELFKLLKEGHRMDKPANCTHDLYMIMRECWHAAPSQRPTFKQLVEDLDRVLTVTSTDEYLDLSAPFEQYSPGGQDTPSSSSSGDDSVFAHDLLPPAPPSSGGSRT
Fes, sequence (P07332 whole entry, looked up): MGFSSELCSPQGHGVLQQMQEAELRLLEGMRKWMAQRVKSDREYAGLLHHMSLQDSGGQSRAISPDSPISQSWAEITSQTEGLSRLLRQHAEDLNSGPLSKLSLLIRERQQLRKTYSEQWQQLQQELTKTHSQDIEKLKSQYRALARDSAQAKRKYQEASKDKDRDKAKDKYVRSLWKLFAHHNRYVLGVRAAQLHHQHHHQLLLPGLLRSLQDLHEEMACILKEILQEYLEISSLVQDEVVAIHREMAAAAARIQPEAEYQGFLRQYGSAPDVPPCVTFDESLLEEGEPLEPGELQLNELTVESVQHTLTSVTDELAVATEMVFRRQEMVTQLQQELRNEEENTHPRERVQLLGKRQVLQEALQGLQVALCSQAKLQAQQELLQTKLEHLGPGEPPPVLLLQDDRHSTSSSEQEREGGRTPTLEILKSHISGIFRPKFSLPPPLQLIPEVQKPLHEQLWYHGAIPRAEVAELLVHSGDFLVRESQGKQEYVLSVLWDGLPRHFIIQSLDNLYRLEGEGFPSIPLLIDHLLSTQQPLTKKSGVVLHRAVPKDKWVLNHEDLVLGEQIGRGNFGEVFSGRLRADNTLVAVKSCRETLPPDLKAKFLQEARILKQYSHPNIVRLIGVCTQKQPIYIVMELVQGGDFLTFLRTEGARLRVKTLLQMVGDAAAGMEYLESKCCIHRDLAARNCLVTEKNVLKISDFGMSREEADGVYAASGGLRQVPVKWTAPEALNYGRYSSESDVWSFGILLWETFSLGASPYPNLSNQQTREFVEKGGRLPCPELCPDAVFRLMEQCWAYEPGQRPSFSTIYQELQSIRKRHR
EPHB1, sequence (P54762 whole entry, looked up): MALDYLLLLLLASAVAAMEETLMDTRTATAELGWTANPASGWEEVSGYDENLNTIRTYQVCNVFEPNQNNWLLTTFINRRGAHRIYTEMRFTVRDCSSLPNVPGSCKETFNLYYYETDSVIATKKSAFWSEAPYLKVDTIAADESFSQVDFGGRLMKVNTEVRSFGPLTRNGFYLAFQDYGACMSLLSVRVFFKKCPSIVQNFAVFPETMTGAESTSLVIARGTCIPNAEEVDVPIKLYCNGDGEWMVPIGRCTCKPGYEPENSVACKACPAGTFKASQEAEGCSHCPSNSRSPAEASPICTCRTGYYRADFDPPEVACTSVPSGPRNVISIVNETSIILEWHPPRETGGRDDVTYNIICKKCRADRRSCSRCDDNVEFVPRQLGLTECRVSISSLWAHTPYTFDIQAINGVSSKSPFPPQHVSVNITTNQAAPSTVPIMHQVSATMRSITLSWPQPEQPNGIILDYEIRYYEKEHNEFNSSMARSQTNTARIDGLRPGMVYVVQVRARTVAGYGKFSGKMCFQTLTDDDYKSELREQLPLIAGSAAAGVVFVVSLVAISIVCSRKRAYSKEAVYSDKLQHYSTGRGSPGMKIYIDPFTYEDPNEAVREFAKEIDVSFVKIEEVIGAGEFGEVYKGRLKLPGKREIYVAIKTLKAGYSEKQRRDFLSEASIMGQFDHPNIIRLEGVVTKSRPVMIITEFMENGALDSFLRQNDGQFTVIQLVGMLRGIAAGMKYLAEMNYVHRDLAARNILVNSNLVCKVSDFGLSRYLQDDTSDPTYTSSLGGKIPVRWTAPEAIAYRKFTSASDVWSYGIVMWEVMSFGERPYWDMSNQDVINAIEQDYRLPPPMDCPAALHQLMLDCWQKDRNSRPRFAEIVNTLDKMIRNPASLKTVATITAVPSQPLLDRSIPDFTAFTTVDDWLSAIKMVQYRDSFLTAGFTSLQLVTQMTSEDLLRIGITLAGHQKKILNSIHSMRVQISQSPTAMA
FGFR1, sequence (P11362 whole entry, looked up): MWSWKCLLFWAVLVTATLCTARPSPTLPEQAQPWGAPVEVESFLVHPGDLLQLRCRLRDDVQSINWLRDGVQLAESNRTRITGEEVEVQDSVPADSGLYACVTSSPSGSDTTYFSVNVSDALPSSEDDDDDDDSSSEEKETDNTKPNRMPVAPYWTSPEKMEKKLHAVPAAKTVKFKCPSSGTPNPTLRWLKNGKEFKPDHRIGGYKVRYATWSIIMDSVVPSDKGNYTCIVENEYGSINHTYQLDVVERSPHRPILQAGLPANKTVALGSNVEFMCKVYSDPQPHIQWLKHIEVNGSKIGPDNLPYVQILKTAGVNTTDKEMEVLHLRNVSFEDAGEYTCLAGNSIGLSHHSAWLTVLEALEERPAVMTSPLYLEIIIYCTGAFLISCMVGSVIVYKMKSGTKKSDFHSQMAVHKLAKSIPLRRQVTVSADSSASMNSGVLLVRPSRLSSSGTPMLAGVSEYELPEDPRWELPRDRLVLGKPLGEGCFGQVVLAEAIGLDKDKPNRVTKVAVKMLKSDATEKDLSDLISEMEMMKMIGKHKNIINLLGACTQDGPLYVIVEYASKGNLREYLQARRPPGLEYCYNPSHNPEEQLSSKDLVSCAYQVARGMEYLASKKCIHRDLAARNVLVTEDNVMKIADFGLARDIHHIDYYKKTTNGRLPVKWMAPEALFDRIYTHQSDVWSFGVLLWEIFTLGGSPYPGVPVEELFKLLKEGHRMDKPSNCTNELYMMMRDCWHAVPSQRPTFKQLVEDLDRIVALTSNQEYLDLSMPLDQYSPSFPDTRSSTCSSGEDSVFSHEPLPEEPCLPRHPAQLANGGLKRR
EPHB2, sequence (P29323 whole entry, looked up): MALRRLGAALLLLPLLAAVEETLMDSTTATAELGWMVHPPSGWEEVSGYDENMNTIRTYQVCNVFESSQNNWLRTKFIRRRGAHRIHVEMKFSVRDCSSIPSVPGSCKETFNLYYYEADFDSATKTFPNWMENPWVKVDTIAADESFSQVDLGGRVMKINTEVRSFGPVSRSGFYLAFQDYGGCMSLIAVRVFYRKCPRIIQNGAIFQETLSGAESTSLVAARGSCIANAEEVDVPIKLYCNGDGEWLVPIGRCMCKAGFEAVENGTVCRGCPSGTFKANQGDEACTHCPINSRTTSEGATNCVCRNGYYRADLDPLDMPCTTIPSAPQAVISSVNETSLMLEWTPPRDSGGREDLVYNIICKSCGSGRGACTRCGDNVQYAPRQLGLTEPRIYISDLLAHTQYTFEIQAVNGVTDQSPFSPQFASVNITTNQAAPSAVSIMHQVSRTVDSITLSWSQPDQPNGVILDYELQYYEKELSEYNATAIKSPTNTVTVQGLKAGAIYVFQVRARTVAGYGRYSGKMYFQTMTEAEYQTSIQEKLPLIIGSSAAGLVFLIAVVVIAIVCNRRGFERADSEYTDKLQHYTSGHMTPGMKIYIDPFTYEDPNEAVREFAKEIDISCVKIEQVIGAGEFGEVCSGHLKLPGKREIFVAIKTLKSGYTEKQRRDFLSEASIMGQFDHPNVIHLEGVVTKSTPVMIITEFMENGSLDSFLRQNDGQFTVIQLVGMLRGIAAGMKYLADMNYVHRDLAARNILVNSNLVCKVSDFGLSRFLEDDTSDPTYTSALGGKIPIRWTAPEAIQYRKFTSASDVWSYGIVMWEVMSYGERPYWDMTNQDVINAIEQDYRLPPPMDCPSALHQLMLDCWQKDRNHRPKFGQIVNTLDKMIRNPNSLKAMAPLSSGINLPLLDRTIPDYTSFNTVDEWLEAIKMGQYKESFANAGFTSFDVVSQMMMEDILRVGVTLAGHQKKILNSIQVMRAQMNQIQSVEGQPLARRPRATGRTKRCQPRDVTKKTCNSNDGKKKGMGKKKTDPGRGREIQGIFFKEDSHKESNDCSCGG
Hck, sequence (P08631 whole entry, looked up): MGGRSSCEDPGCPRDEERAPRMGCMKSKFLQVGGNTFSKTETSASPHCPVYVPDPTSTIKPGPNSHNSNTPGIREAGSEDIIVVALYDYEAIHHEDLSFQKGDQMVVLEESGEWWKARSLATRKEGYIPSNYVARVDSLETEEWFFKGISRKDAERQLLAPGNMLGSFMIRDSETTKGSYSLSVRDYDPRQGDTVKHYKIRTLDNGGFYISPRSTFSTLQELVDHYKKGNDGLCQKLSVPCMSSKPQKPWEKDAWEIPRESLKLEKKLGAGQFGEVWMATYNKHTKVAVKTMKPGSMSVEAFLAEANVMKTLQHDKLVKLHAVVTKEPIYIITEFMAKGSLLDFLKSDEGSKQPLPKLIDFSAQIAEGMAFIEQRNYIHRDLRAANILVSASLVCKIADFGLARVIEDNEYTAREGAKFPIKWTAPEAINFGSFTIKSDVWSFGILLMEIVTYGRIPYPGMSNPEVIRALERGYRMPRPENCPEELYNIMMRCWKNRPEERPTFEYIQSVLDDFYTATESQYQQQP

Sequence | SH2 binding enrichment (Grb2 SH2) | SH2 binding enrichment (SHP2-C SH2) | SH2 binding enrichment (c-Src SH2) | phosphorylation enrichment (AncSZ) | phosphorylation enrichment (EPHB1) | phosphorylation enrichment (EPHB2) | phosphorylation enrichment (FGFR1) | phosphorylation enrichment (FGFR3) | phosphorylation enrichment (Fer (mouse)) | phosphorylation enrichment (Fes) | phosphorylation enrichment (Fyn) | phosphorylation enrichment (Hck) | phosphorylation enrichment (Jak2) | phosphorylation enrichment (MERTK) | phosphorylation enrichment (c-Abl (mouse)) | phosphorylation enrichment (c-Src)
MGHVNYGAYIN [GLB1_Y485_R482H] | 5.27 | 0.902 | 1.39 | 0.602 | 0.535 | 0.796 | 0.384 | 0.444 | 0.395 | 0.661 | 0.521 | 0.471 | 0.672 | 0.358 | 0.571 | 0.589
MHLRQYELLGG [GNAS_Y391] | 0.868 | 0.689 | 7.91 | 0.663 | 0.75 | 0.453 | 0.558 | 0.705 | 0.507 | 0.869 | 0.464 | 0.506 | 0.634 | 0.773 | 0.541 | 0.516
MKNQKYGRIIM [HSD17B4_Y143_K140N] | 1.49 | 1.64 | 1.05 | 0.527 | 0.376 | 0.34 | 0.433 | 0.386 | 0.341 | 0.646 | 0.424 | 0.439 | 0.587 | 0.301 | 0.54 | 0.301
MNLLGYRHVRS [CHST4_Y359] | 0.855 | 0.748 | 0.545 | 0.761 | 0.423 | 0.461 | 0.612 | 0.466 | 0.409 | 0.738 | 0.403 | 0.488 | 0.691 | 0.4 | 0.663 | 0.405
MPPHICAITDT [MYH9_Y151_Y151C] | 1.1 | 0.706 | 0.657 | 0.809 | 0.628 | 0.53 | 0.578 | 0.685 | 0.631 | 1.1 | 0.51 | 0.538 | 0.981 | 0.473 | 1.34 | 0.529
NFADPYRQLQF [CTNND2_Y503_YF] | 0.878 | 1.04 | 0.555 | 0.765 | 0.494 | 0.502 | 0.516 | 0.557 | 0.436 | 0.826 | 0.473 | 0.539 | 0.667 | 0.454 | 0.654 | 0.563
NKYTTYLPWLP [C9orf24_Y126_R129W] | 1.14 | 1.01 | 0.739 | 1.08 | 6.9 | 12.8 | 2.77 | 2.25 | 9.65 | 0.944 | 6.75 | 8.09 | 2.34 | 3.37 | 1.94 | 4.72
NLMPAYFKCIQ [CYP21A2_Y190_YF] | 0.904 | 0.639 | 0.494 | 1.4 | 0.74 | 0.707 | 0.617 | 1.01 | 0.768 | 1.6 | 0.546 | 0.61 | 1.61 | 0.539 | 1.09 | 0.526
NNHGNYIVLLG [ETFDH_Y172_R175L] | 0.983 | 1.14 | 0.587 | 0.979 | 7.55 | 3.86 | 2.81 | 1.71 | 0.363 | 0.902 | 0.458 | 0.433 | 0.833 | 1.66 | 0.644 | 0.522
NNIDYYKKTTN [FGFR2_Y657] | 1.02 | 0.603 | 0.459 | 0.616 | 0.543 | 0.527 | 0.456 | 0.495 | 0.6 | 0.703 | 0.633 | 0.764 | 0.524 | 0.437 | 0.517 | 0.492

Now from value to sequence, other results behind:

SH2 binding enrichment (Grb2 SH2) | SH2 binding enrichment (SHP2-C SH2) | SH2 binding enrichment (c-Src SH2) | Sequence | phosphorylation enrichment (AncSZ) | phosphorylation enrichment (EPHB1) | phosphorylation enrichment (EPHB2) | phosphorylation enrichment (FGFR1) | phosphorylation enrichment (FGFR3) | phosphorylation enrichment (Fer (mouse)) | phosphorylation enrichment (Fes) | phosphorylation enrichment (Fyn) | phosphorylation enrichment (Hck) | phosphorylation enrichment (Jak2) | phosphorylation enrichment (MERTK) | phosphorylation enrichment (c-Abl (mouse)) | phosphorylation enrichment (c-Src)
0.739 | 0.546 | 0.404 | MHDSNYVSKGS [PDGFRA_Y849] | 0.648 | 0.388 | 0.416 | 0.501 | 0.459 | 0.393 | 0.73 | 0.535 | 0.554 | 0.55 | 0.451 | 0.508 | 0.482
1.15 | 0.719 | 0.932 | MSRDVYSTDCY [NTRK2_Y702_Y706C] | 0.993 | 0.718 | 0.701 | 0.726 | 0.766 | 0.631 | 1.14 | 2.1 | 0.972 | 1.06 | 1.51 | 0.993 | 2.32
1.21 | 1.51 | 1.71 | MSSLPYMKMIF [SLC4A11_Y853] | 0.946 | 0.474 | 0.541 | 0.753 | 0.706 | 1.05 | 1.03 | 0.421 | 0.692 | 1.65 | 0.566 | 0.732 | 0.813
0.711 | 0.488 | 0.55 | MVIPNYSSRTE [UROC1_Y185] | 0.535 | 0.477 | 0.462 | 0.406 | 0.416 | 0.435 | 0.642 | 0.406 | 0.329 | 0.486 | 0.425 | 0.438 | 0.446
0.824 | 0.791 | 0.623 | NIKKEYAKMVQ [PMS2_Y181] | 0.549 | 0.345 | 0.413 | 0.358 | 0.39 | 0.294 | 0.615 | 0.335 | 0.451 | 0.436 | 0.392 | 0.422 | 0.312
0.713 | 0.636 | 0.392 | NKEAIYSGFIR [SMCHD1_Y283_YF] | 0.78 | 5.18 | 7.14 | 0.59 | 0.557 | 5.17 | 1.01 | 14.5 | 13.1 | 0.711 | 12.7 | 33.6 | 9.78
